Earlier results in article PMC4729772 (Theranostics, 2016).

## Albiglutide: glucagon-like peptide-1 dimer fused to human albumin
  half-life: four to seven
